This note sets out measurements from publication PMC7699480.

The target in assay [1] is control-IgG-SpyTag (human (hG1 in the plasmid's name)). The experiment in a line: electrophoresis on a bioanalyzer after covalent ligation; ∆N-SpyCatcher-DFO reacted with IgG-SpyTag at molar ratios 0:1, 1:4, 1:2, 1:1 and 2:1; 1 h, PBS, room temperature; products analysed under reducing conditions; read-out is the share of heavy chain shifted from ~64 kDa to ~81 kDa.
Assay [2] addresses nimotuzumab-SpyTag (human (hG1 in the plasmid's name)). Described as above.
For a further assay, the target named is IgG-SpyTag. The experiment in a line: electrophoresis on a bioanalyzer after covalent ligation; time course at 1:1 molar ratio; IgG-SpyTag 10 µM; ∆N-SpyCatcher-DFO kept at RT or heated for 1 h beforehand; reaction stopped by 10-fold dilution and storage at −80 °C; read-out is the share of heavy chain converted.
In assay [3] the target is nimotuzumab-SpyTag (human (hG1 in the plasmid's name)). The experiment in a line: electrophoresis on a bioanalyzer after covalent ligation; nimotuzumab-SpyTag (10 µM) ligated with ∆N-SpyCatcher-DFO (20 µM), 1:1 SpyTag:SpyCatcher; molecular weight of the whole conjugate.
nimotuzumab-SpyTag (human (hG1 in the plasmid's name)), sequence (heavy, as listed by the source, chain 1 of 2): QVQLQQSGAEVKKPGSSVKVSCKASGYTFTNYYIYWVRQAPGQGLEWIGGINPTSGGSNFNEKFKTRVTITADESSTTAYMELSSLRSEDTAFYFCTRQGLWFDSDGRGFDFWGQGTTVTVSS
nimotuzumab-SpyTag (human (hG1 in the plasmid's name)), sequence (light, as listed by the source, chain 2 of 2): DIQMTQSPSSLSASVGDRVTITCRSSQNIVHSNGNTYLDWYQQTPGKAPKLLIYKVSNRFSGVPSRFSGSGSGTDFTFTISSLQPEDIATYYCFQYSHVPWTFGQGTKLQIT

The stoichiometry N is the number of molecules, sites or subunits per partner or assembly. Consider ∆N-SpyCatcher-DFO (designed binder), for which, in assay [1], the percent of heavy chain conjugated (SpyCatcher:SpyTag 1:1) amounted to 99%, the percent of heavy chain conjugated (SpyCatcher:SpyTag 1:2) is 50% and the percent of heavy chain conjugated (SpyCatcher:SpyTag 1:4) worked out at 25%. In assay [2], the percent of heavy chain conjugated (SpyCatcher:SpyTag 1:1) amounted to 99%, the percent of heavy chain conjugated (SpyCatcher:SpyTag 1:2) was determined as 50% and the percent of heavy chain conjugated (SpyCatcher:SpyTag 1:4) turned out to be 25%. Moreover, in the assay with IgG-SpyTag, the percent of heavy chain converted (1 min) was 35%, the percent of heavy chain converted (15 min) amounted to 94% and the percent of heavy chain converted (stopped reaction) was determined as 13%. In assay [3], this substance showed a stoichiometry N of 2.
